Laboratory results taken from patent publication US20090297503A1 (Chugai, published 2009).

How the values were obtained:
[1] = biological target: T1, recombinant human blood coagulation Factor VIII (Kogenate FS) (human, UniProt P00451 20-2351); assay: SPR (BIAcore X), moAb216 coupled to CM5 chip, Factor VIII in flow, 37 C
T1 construct: The background describes the protein as a heavy chain/light chain heterodimer and numbers 2,332 residues; the entry may also carry the signal peptide; also called F.VIII
Procedure: (§1) The kinetics of moAb216 interaction with Factor VIII was determined by SPR-based assay using a BIAcore X instrument (Biacore AB, Uppsala, Sweden) as previously reported. moAb216 was covalently coupled to the surface of CM5 chip at a coupling density of up to 5 ng/mm². Binding (association) of the ligand was monitored in the running buffer (10 mM HEPES pH 7.4, 0.1 M NaCl, 1 mM CaCl₂, 0.005% polysorbate 20) for two minutes at a flow rate 20 μl/min. The dissociation of bound ligand was recorded over a two-minute period by replacing the ligand-containing buffer with buffer only. The level of nonspecific binding as a result of ligand binding to the uncoated chip was subtracted from the signal. Reactions were performed at 37° C. The rate constants for association (kₐₛₛₒ) and dissociation (kdiss) were determined by nonlinear regression analysis using the evaluation software provided by Biacore AB. The dissociation constant (Kd) was calculated as kdiss/kₐₛₛₒ.
(§2) Reactions were performed as described under “Materials and Methods”. Parameter values were calculated by nonlinear regression analysis using the evaluation software provided by Biacore AB. ^{#}Values were calculated as kdiss/kₐₛₛₒ. *not determined

[2] = biological target: T1, recombinant human blood coagulation …; assay: cell-based or functional assay
[3] = biological target: T2, Factor VIII A1 subunit (human, UniProt P00451 20-391); assay: ELISA: Factor VIII A1 subunit (50 nM) coated on microtiter wells, biotinylated moAb216 added, detected with peroxidase-conjugated streptavidin, absorbance at 492 nm
T2 construct: only the A1 subunit stood in the assay; also called A1 domain
T2 sequence: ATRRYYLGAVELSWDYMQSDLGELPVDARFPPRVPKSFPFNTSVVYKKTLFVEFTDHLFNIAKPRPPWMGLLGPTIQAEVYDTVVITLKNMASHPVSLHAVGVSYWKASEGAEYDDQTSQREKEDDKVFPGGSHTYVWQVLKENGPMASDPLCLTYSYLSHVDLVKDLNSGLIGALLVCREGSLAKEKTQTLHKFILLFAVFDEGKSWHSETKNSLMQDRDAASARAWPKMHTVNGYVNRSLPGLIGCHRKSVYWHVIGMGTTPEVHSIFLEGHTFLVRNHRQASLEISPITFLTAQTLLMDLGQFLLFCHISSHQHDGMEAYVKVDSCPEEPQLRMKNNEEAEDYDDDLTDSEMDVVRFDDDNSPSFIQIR
Procedure: (§3) Microtiter wells were coated with Factor VIII or its subunit (50 nM) in 20 mM Tris, and 0.15 M NaCl, pH 7.4, overnight at 4° C. The wells were washed with PBS containing 0.01% Tween 20 and were blocked with PBS containing 5% HSA for two hours at 37° C. The indicated concentrations of biotinylated-moAb216 were then added in 20 mM HEPES, 0.1 M NaCl, 5 mM CaCl₂, and 0.01% Tween 20, pH 7.2 (HBS-buffer) containing 1% HSA for two hours at 37° C. Bound IgG was quantified by the addition of peroxidase-conjugated streptavidin and O-phenylenediamine dihydrochloride substrate. Reactions were stopped by the addition of 2 M H₂SO₄, and absorbance was measured at 492 nm. The amount of nonspecific binding of anti-mouse peroxidase-conjugated IgG in the absence of moAb216 was <5% of the total signal. Specific binding was recorded after subtracting the nonspecific binding.

[4] = biological target: T3, Factor VIII heavy chain (human, UniProt P00451 20-1667, limits assumed); assay: ELISA: Factor VIII heavy chain (50 nM) coated on microtiter wells, biotinylated moAb216 added, detected with peroxidase-conjugated streptavidin, absorbance at 492 nm
T3 construct: only the heavy chain part stood in the assay; also called HCh
Procedure: as §3

[5] = biological target: T4, Factor VIII light chain (human, UniProt P00451 1668-2351); assay: ELISA: Factor VIII light chain (50 nM) coated on microtiter wells, biotinylated moAb216 added, detected with peroxidase-conjugated streptavidin, absorbance at 492 nm
T4 construct: only the light chain part stood in the assay; also called LCh
T4 sequence: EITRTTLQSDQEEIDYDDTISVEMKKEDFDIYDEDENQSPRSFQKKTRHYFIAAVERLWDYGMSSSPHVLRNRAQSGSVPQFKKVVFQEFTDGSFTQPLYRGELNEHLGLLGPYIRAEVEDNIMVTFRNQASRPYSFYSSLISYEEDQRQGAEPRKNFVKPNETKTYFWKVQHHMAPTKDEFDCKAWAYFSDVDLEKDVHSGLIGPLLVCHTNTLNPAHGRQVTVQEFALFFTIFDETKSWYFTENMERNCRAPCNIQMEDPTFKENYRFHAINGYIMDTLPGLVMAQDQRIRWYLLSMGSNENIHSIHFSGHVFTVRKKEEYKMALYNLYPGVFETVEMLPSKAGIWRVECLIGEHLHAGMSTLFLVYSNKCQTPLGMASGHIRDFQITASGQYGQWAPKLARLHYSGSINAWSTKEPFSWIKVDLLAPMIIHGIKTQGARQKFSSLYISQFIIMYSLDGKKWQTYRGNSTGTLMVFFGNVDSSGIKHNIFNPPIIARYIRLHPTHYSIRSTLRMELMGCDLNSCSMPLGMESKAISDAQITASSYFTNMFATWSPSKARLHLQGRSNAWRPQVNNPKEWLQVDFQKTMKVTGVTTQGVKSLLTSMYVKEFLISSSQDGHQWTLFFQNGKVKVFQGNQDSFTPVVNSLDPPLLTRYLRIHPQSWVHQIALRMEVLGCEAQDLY
Procedure: as §3

[6] = biological target: T3, Factor VIII heavy chain; assay: SPR (BIAcore X), moAb216 coupled to CM5 chip, heavy chain in flow, 37 C; calculated as kdiss/kasso
Procedure: as §1, §2

[7] = biological target: T1, recombinant human blood coagulation …; assay: SPR (BIAcore X), moAb216 coupled to CM5 chip, Factor VIII in flow, 37 C; calculated as kdiss/kasso
Procedure: as §1, §2

[8] = biological target: T5, Factor VIII A2 subunit (human, UniProt P00451 392-759); assay: SPR (BIAcore X), moAb216 coupled to CM5 chip, A2 in flow, 37 C; calculated as kdiss/kasso
T5 construct: only the A2 subunit stood in the assay; also called A2 domain
T5 sequence: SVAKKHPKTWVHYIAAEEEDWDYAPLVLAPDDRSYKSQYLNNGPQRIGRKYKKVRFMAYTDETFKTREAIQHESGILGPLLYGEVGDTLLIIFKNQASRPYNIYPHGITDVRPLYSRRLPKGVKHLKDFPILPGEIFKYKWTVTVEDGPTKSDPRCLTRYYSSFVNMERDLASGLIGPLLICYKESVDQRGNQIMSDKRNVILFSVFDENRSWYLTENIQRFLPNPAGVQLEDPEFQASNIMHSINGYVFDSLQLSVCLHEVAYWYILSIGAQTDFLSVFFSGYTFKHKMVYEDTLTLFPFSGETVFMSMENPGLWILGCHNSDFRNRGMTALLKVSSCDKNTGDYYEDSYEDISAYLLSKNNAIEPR
Procedure: as §1, §2

[9] = biological target: T1, recombinant human blood coagulation …; assay: ELISA: Factor VIII (50 nM) coated on microtiter wells, biotinylated moAb216 added, detected with peroxidase-conjugated streptavidin, absorbance at 492 nm
Procedure: as §3

[10] = biological target: T3, Factor VIII heavy chain; assay: SPR (BIAcore X), moAb216 coupled to CM5 chip, heavy chain in flow, 37 C
Procedure: as §1, §2

[11] = biological target: T5, Factor VIII A2 subunit; assay: SPR (BIAcore X), moAb216 coupled to CM5 chip, A2 in flow, 37 C
Procedure: as §1, §2

B1: anti-Factor VIII monoclonal antibody moAb216 (antibody, V domains shown)
VH: EVRLVESGGGLVKPGGSLKLSCAASEFTFSSYSMSWVRQTPEKRLEWVASINSGGRTFYPDSVKGRFTISRDNARNILVLQMSSLRSEDTAMYYCARVIYYDYGAYALDYWGQGTSLTVSS
VL: EIVLTQSPALMAAYPGEKVTITCSVSSSISSSNLHWYQQKSETSPKLWIYGTSNLASGVPVRFSGSGSGTSYSLTISSMEAEDAATYYCQQWNIYPLTFGAGTKLELK
notes: It was biotinylated for the ELISAs and coupled covalently to a CM5 chip for SPR; also called moAb216 IgG; biotinylated moAb216
Q: With B1 as the binder, how does the koff [1] read?
A: 0.001 s⁻¹

Q: And the kon [1]?
A: 930000 M⁻¹ s⁻¹

Q: And the “percentage of Factor Xa cleavage at Arg372 (A2/A1-A2 ratio, densitometry)” value [2]?
A: ≤ 2 times

Q: And the “rate of thrombin cleavage at Arg372 (A2 product/A1-A2 substrate ratio, densitometry of Western blot)” value [2]?
A: ~2 times

Q: Does B1 bind [3]?
A: no binding (tested: 1.25 µg/ml)

Q: What about the “EC50 (read off the curve)” value [4] of the same binder?
A: ~0.09 µg/mL

Q: Does B1 bind [5]?
A: no binding (tested: 1.25 µg/ml)

Q: And the Kd [6]?
A: 3 nM

Q: What about the Kd [7] of the same binder?
A: 1.1 nM

Q: What about the Kd [8] of the same binder?
A: 0.8 nM

Q: What about the “EC50 (read off the curve)” value [9] of the same binder?
A: ~0.08 µg/mL

Q: What about the koff [10] of the same binder?
A: 0.0009 s⁻¹

Q: What about the kon [10] of the same binder?
A: 294000 M⁻¹ s⁻¹

Q: And the koff [11]?
A: 0.0002 s⁻¹

Q: And the kon [11]?
A: 238000 M⁻¹ s⁻¹
